Patent US20130280735A1

Molecular target: ICAM-1 (COS cell transfectants) (UniProt P05362)
Test: FACS of COS transfectants, one transfection out of at least five attempts

Chain of UniProt P05362 (P05362 28-532 limits assumed): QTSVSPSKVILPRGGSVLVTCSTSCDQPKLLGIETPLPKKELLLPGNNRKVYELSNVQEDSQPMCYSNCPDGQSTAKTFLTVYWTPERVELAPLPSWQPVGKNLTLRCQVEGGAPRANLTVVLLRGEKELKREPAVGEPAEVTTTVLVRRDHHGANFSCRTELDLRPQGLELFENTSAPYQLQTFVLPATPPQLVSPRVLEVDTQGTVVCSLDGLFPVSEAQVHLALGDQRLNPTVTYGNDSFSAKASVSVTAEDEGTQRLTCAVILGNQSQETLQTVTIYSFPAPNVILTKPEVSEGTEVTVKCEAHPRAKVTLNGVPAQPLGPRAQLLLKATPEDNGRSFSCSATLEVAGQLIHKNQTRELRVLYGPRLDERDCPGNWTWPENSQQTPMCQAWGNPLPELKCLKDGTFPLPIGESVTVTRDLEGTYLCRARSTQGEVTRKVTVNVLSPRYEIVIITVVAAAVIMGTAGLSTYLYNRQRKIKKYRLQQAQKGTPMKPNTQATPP

Fc-CD33Rg (from UniProt P20138 18-259) (Fc fusion)
% binding: 36%
